Results on one molecule are retold here after publication doi:10.1101/2023.03.31.534734 (bioRxiv, 2023).

For the test, the target named is recombinant, non-biotinylated HLA-A*01:01 (α-chain, β2m, peptide […]) (Homo sapiens, HLA-A*01:01; peptide from …, strain). The test is described as follows: crystal structure.

B1: Fab of rmAb E07 (Fab, V domains shown)
VH: QVQLQESGGGVVQPGGSLRLSCAASGFNFSNYGMHWVRQTPGKGLEWVASIPYDGSHQWHADSVKGRFTISRDNSKNTLYLQINSLRPEDTAMYYCSKARISYLSAPAWWFDPWGQGTLVTVSS
VL: QSVSTQPPSVSVAPGQTARITCGGNNIGSKSVHWYRQKPGQAPVLVVYDNNARPSGIPERISGSNFANTATLTISRVEAGDEADYYCHVWDSSSDHVVFGGGTKLTVL
On to B1, for which the binding result is “binds”.
